From the supplement of paper PMC10126150
± gives the standard deviation of the averaged measurements.

Tested on: ATP
Assay: switch fluorescence ratio, 500 uM ATP over buffer (Cy3 cluster intensity, sum of 5 cycles each) (fold (ratio)); higher = stronger signal-on switching upon ATP binding; sequences stand for … in TCGTCGGCAGCGTCAGATGTGTATAAGAGACAGTTTTTTTTTTTTTTTTTTTTTTTTT…TC
Details: aptamer strand: ATP DNA aptamer (quencher-CACCTGGGGGAGTATTGCGGAGGAAGG + anchor), 100 nM annealed; ATP concentration: 500 uM
How it was run: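 Five buffer/ATP imaging cycles were run on Cy3-labelled switching-strand clusters on a modified Illumina MiSeq flow-cell, with NaOH stripping and re-annealing between cycles. In each cycle, clusters annealed to 100 nM quencher-labelled ATP aptamer were imaged in selection buffer, then after 15 min with 500 uM ATP at 22 °C. Per cluster, the fluorescence ratio is summed target-cycle over summed buffer-cycle Cy3 intensity, averaged per switch-domain sequence. Only clusters within 100-1000 RFU were kept.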
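Further: ATP exposure 15 min at 22 °C before imaging.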

TTGGGATAAC and TTGGGATGCC are within error of each other in switch fluorescence ratio: 1.04 ± 0.058 for the first, 1.08 ± 0.17 for the second.

TTGGGCAAGG and TTGGGCCCGT are the same in switch fluorescence ratio: 1.02 ± 0.026 for the first, 1.02 ± 0.075 for the second.

Compared with TTGGGCGAGC, TTGGGGAAGC is lower in switch fluorescence ratio: 0.9736 ± 0.0045 for the first, 0.958 ± 0.002 for the second.

TTGGGGAAGG and TTGGGGAATT are within error of each other in switch fluorescence ratio: 1.04 ± 0.034 for the first, 1 ± 0.019 for the second.

TTGGGGAGAG and TTGGGGATAT are within error of each other in switch fluorescence ratio: 0.991 ± 0.01 for the first, 0.998 ± 0.039 for the second.

TTGGGGATGG and TTGGGGATTA are within error of each other in switch fluorescence ratio: 1.01 ± 0.047 for the first, 1.09 ± 0.18 for the second.

TTGGGGCAAA and TTGGGGCATA are within error of each other in switch fluorescence ratio: 1.06 ± 0.061 for the first, 1.43 ± 0.77 for the second.

TTGGGGCGTT and TTGGGGGACG are within error of each other in switch fluorescence ratio: 0.993 ± 0.057 for the first, 0.982 ± 0.048 for the second.

TTGGGGGACT and TTGGGGGCAT are within error of each other in switch fluorescence ratio: 1.01 ± 0.042 for the first, 1.02 ± 0.052 for the second.

TTGGGGGCCT and TTGGGGGCGA are the same in switch fluorescence ratio: 1.04 ± 0.06 for the first, 1.036 ± 0.0035 for the second.

TTGGGGGGAA and TTGGGGGGGT are within error of each other in switch fluorescence ratio: 1.01 ± 0.025 for the first, 1 ± 0.03 for the second.

TTGGGGGGTT and TTGGGGGTCC are within error of each other in switch fluorescence ratio: 1.03 ± 0.066 for the first, 1.02 ± 0.038 for the second.

TTGGGGTCCC and TTGGGGTCCG are within error of each other in switch fluorescence ratio: 1 ± 0.037 for the first, 0.977 ± 0.053 for the second.

TTGGGGTTAC and TTGGGGTTCT are within error of each other in switch fluorescence ratio: 1.11 ± 0.16 for the first, 1.04 ± 0.033 for the second.

First: TTGGGTAAGT
Second: TTGGGTAGCA
The switch fluorescence ratio of the first is higher: 1.016 ± 0.0059 for the first, 0.9968 ± 0.0098 for the second.

TTGGGTAGCT and TTGGGTAGTG are within error of each other in switch fluorescence ratio: 0.996 ± 0.043 for the first, 0.993 ± 0.031 for the second.

TTGGGTATAG and TTGGGTATGG are within error of each other in switch fluorescence ratio: 1.02 ± 0.028 for the first, 0.997 ± 0.018 for the second.

TTGGGTATGT and TTGGGTCAAC are within error of each other in switch fluorescence ratio: 1.01 ± 0.038 for the first, 1.05 ± 0.014 for the second.

TTGGGTCATA and TTGGGTCCTT are within error of each other in switch fluorescence ratio: 1.01 ± 0.039 for the first, 0.993 ± 0.026 for the second.

TTGGGTCGGA and TTGGGTGGCG are within error of each other in switch fluorescence ratio: 0.992 ± 0.029 for the first, 1.04 ± 0.12 for the second.

TTGGGTGTTG and TTGGGTTAGC are within error of each other in switch fluorescence ratio: 0.997 ± 0.037 for the first, 1.03 ± 0.037 for the second.

TTGGGTTCCT and TTGGGTTTAT are within error of each other in switch fluorescence ratio: 1.04 ± 0.11 for the first, 0.999 ± 0.017 for the second.

First: TTGGGTTTGG
Second: TTGGTAATCC
The switch fluorescence ratio of the first is lower: 0.986 ± 0.015 for the first, 1.011 ± 0.0026 for the second.

TTGGTACCGC and TTGGTACGGC are within error of each other in switch fluorescence ratio: 1 ± 0.048 for the first, 0.99 ± 0.037 for the second.

TTGGTACGGG and TTGGTACTGC are within error of each other in switch fluorescence ratio: 1.01 ± 0.047 for the first, 1.03 ± 0.027 for the second.

TTGGTAGAGT and TTGGTATATA are within error of each other in switch fluorescence ratio: 0.965 ± 0.04 for the first, 0.9879 ± 0.0069 for the second.

TTGGTATGTA and TTGGTATTTG are within error of each other in switch fluorescence ratio: 1 ± 0.018 for the first, 0.993 ± 0.018 for the second.

TTGGTCTATC and TTGGTGAATT are within error of each other in switch fluorescence ratio: 0.998 ± 0.035 for the first, 0.99 ± 0.019 for the second.

TTGGTGAGGT and TTGGTGCATG are within error of each other in switch fluorescence ratio: 0.99 ± 0.041 for the first, 1.01 ± 0.04 for the second.

TTGGTGCGTT and TTGGTGCTGT are within error of each other in switch fluorescence ratio: 0.992 ± 0.018 for the first, 1.01 ± 0.017 for the second.

TTGGTTACTT and TTGGTTATGG are within error of each other in switch fluorescence ratio: 1.01 ± 0.011 for the first, 1 ± 0.039 for the second.

TTGGTTATTT and TTGGTTCAGC are within error of each other in switch fluorescence ratio: 1 ± 0.045 for the first, 1.05 ± 0.028 for the second.

Compared with TTGGTTCCGC, TTGGTTCTCT is lower in switch fluorescence ratio: 1.53 ± 0.48 for the first, 1.01 ± 0.011 for the second.

TTGGTTCTGA and TTGGTTGGAA are within error of each other in switch fluorescence ratio: 1.021 ± 0.0036 for the first, 1 ± 0.072 for the second.

TTGGTTGTAG and TTGGTTTACG are within error of each other in switch fluorescence ratio: 1.01 ± 0.02 for the first, 1.02 ± 0.03 for the second.

Going from TTGGTTTCGT to TTGGTTTGCC, the switch fluorescence ratio falls from 1.022 ± 0.0059 to 0.982 ± 0.029.

TTGGTTTTGT and TTGGTTTTTA are within error of each other in switch fluorescence ratio: 0.995 ± 0.024 for the first, 0.98 ± 0.018 for the second.

Compared with TTGTAAAATT, TTGTAAACTT is higher in switch fluorescence ratio: 0.99 ± 0.027 for the first, 1.03 ± 0.012 for the second.

In the case of TTGTAACGGA, the switch fluorescence ratio is reported as 1.01 ± 0.039.
